± gives the uncertainty stated by the source.

A short description of this data set: amyloid nucleation score (Sup35N fusion, yeast selection) (log enrichment); library NNK1; higher = more nucleation; inactive = no reads after selection. The method in brief: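 Three technical output replicates were used for random libraries. Psi-negative yeast expressing peptides of 20 random codons fused to Sup35N were induced with 100 μM copper sulfate for 24 hours and grown 7 days at 30°C on medium lacking adenine and uracil, and input and output plasmid inserts were Illumina-sequenced, excluding sequences with under 100 input reads. The nucleation score is the DiMSum log enrichment of output over input reads, centred on the mode score of non-aggregating sequences.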
In the case of RNQRSSMWVGNRCYGGRCVW, the amyloid nucleation score came to 0.898 ± 0.93.
Under RNTVGYVSNTGVLYILTS stands 6.24 ± 0.067; under RNWCIMFLTYVL, 3.74 ± 0.083; under RPAKLMAMPKILIGPH, 0.131 ± 0.26.
With RPNMVNVKNSRRFSL the figure was 0.257 ± 0.48; with RQAFIRGGLEAAKGAYHVLG, -1.38 ± 2.4.
Under RQPANEELPFSVTGK stands -0.892 ± 0.65.
Regarding RQTLEKF, the amyloid nucleation score was -0.168 ± 0.28.
Under RQVRMGFPGFWFMVIDYCRS stands 0.499 ± 0.39.
Take RRCMLLYCGLGAGALGSDGR: the amyloid nucleation score is -0.539 ± 1.1.
Substance RRCSEM showed an amyloid nucleation score of 0.853 ± 0.4.
As to RRENIP, the amyloid nucleation score was determined as 0.01 ± 0.42.
For RRFEWFAGHCGIVDLPLGVG, the amyloid nucleation score came to 0.568 ± 0.97.
Under RRGAKRSLWLIRNLWWDKSK stands “inactive”.
Under RRHAHLWLYLGNLGCWLEEV stands -0.139 ± 0.38; under RRLHMLVNHLKCAGATRGGR, -0.172 ± 0.34.
With RRLPA the figure was -0.091 ± 0.9; with RRLTRIIKAKL, 0.018 ± 0.78; with RRLYSKKILRDWLASSFSTD, “inactive”.
As for RRMKFDMSNGRQGSLVNHGR, the amyloid nucleation score turned out to be 0.214 ± 0.53.
Under RRMTDLFV stands -0.354 ± 0.3.
In turn, RRPNETS displayed an amyloid nucleation score of -1.08 ± 2.4.
Under RRRSLLLVWRMTVGWVWGWD stands -0.215 ± 0.62.
For the substance RRTIYASLRLY, the amyloid nucleation score was found to be 0.066 ± 0.29.
For RRVLRTSKNSSLMDFYATIE, the amyloid nucleation score was 0.299 ± 0.79.
With RRYEFKRLGSMSDGVTLRSM the figure was -0.759 ± 0.5.
Under RRYVICNYCLYSRV stands 1.12 ± 0.33.
RSCITESRRHIWRTGMVEKW: the amyloid nucleation score amounted to 0.716 ± 0.48.
With RSFEGKRFNVGWLFASATFM the figure was 0.157 ± 0.46; with RSFSECLMSGHTIFQFGMYM, 4.26 ± 0.14.
With RSFTVCEFMFLFRLWDNSAY the figure was 0.11 ± 0.9; with RSGGTSSTALQQQLRFNRTR, 0.581 ± 0.33.
The substance RSLPNPL came in with an amyloid nucleation score of -0.29 ± 0.42.
With RSSILMVVVANHSIIVTRGV the figure was 3.04 ± 0.13; with RSSKGIPLMENPLVYTMASR, 0.005 ± 1.7.
With RSSMPRSWAVWPRWE the figure was 0.176 ± 0.71.
With RSSWKVLKRFRVVRERHEIT the figure was 0.257 ± 1.1; with RSSWQMSPNMLLTNLNCCSS, 6.367 ± 0.047.
In the case of RSTSF, the amyloid nucleation score entry is “inactive”.
Under RSVPCPYYGLL stands 0.033 ± 0.66.
Substance RSVSLC showed an amyloid nucleation score of 0.907 ± 0.61.
RSVSLNRSTRRRR yielded an amyloid nucleation score of 1.1 ± 0.41.
Substance RSVYFIYTWIWQVSAVIFLC returned an amyloid nucleation score of 0.107 ± 0.2.
Substance RTFGYGHHIAGGCRDYRVYR displayed an amyloid nucleation score of -0.373 ± 0.62.
Under RTFTGRDGCVKDVCTPHFEM stands 0.632 ± 0.9; under RTICKVIFVSEVKSLFWNMS, 1.87 ± 0.41.
Under RTINMQLVTLYLTSRVVDNF stands 1.1 ± 0.47; under RTLFIRSLVYFVLSSFIFAV, -0.004 ± 0.36; under RTLGFLRCFIITSVDSTKNA, 0.514 ± 0.8.
With RTLLSFNRDVSFEGQPPGWL the figure was 0.352 ± 1.
For RTLMRLN, the amyloid nucleation score is -0.762 ± 0.41.
Under RTLPSG stands -0.12 ± 0.19.
RTPFNVDPKPTDPRNTRCST displayed an amyloid nucleation score of 0.822 ± 0.93.
Under RTRSGRVICNGFPRYSTTAA stands “inactive”; under RTSPSYGIPNWAELLRVE, -0.311 ± 0.69.
Under RTVQSGHSSARCKIIGPYHD stands -0.077 ± 1.7; under RVAPKGNRARDHVDSSSECS, 2.14 ± 0.18.
The substance RVCCWHFTFVTVCCKLLSMT registered an amyloid nucleation score of 1.93 ± 0.23.
With RVGEKSVEWPAFLRYLMKWF the figure was -0.008 ± 0.5.
With RVGNNLNFM the figure was -0.915 ± 0.3.
With RVGSFMVNPSSCMSYAFWLR the figure was 0.443 ± 0.49; with RVHSIDENVWMVQGQNSRAG, 3.73 ± 0.16; with RVLDLKWPCYMGSVNLASRR, 0.016 ± 0.74.
In turn, RVLRQMKSIC yielded an amyloid nucleation score of -0.44 ± 0.83.
In turn, RVNTCMSRGRA registered an amyloid nucleation score of -0.367 ± 0.61.
With RVNYIHD the figure was -0.057 ± 0.46; with RVRLTFCCLMAVRSRSMISK, 0.436 ± 1.2; with RVRSSMCGALWARKFYRTHI, -0.116 ± 0.49.
The substance RVVRSATADITACMSLNIYR yielded an amyloid nucleation score of 0.879 ± 0.56.
In turn, RVWYCRGMCRP yielded an amyloid nucleation score of -0.239 ± 0.93.
With RVYMFLARFGRESGWSVRQW, the amyloid nucleation score was 0.169 ± 1.
Under RWCLVSGMILCSLLCVYSFN stands -1.62 ± 2.4.
RWCVVSEKTFCINYTRLSFA returned an amyloid nucleation score of 0.888 ± 0.23.
Turning to RWIFSSWLLDGILGERCQTV, the amyloid nucleation score was -0.484 ± 1.1.
Consider RWMELMALSRKTPGRQKARC, for which the amyloid nucleation score is -0.745 ± 1.5.
Under RWRKVGIKEGLIMLESGVSR stands -0.921 ± 2.4; under RYCVHIWRCDSLNHHN, 0.349 ± 0.41; under RYDTNMFFSCCT, 5.591 ± 0.054.
Under RYEMSVHGV stands 0.391 ± 0.66.
With RYFCAIWLGCGERRSRVSKW the figure was 1.38 ± 0.34; with RYFNGYITGNLNSASNARSS, 1.81 ± 0.18; with RYMSHGIGGTPV, 0.142 ± 0.69.
As to RYVSLDRPYTSNNNRYAKGV, the amyloid nucleation score was 0.475 ± 0.22.
As to SACNLPACRSNKLAGRGRVM, the amyloid nucleation score is 0.408 ± 0.42.
With SADLCLMWSGTNC the entry was “inactive”; with SADQIYHKGQWHSWTNSTNQ, 0.35 ± 0.29.
Under SAGAYGVRGRGSTLMVVFEW stands -0.066 ± 0.54.
With SAGYYPVVLCALILEAEYQD the figure was -0.541 ± 0.61; with SAHHLVIRFGMLYPREQHCL, 0.299 ± 0.43.
The substance SAPFMNGLCTLSRVREISAH yielded an amyloid nucleation score of 0.222 ± 0.59.
Under SARYTLKPQPWVHHLLK stands 0.523 ± 0.9; under SATIKYHYFLTFFNVDRFCR, 2.07 ± 0.46; under SCETVWYVFNSAIACFTFRR, 4.18 ± 0.15.
Under SCFTTF stands -1.54 ± 1.2.
As to SCGSVFF, the amyloid nucleation score was -0.758 ± 2.1.
Under SCGTYFLFICHKSLYWHVHI stands -0.594 ± 0.9; under SCKDSCTEYSGAIYVLVWVK, 0.604 ± 0.56; under SCLIFVSHSTEGYYSTPTFP, 2.26 ± 0.26.
As for SCLPGPKRFL, the amyloid nucleation score came to 0.496 ± 1.2.
Under SCLSRASIYSRFHSNLYVKM stands “inactive”; under SCLVWLFRCFFRTYQYYEFI, 0.253 ± 0.24.
In turn, SCSELGMLERLDMGLTLEVL registered an amyloid nucleation score of -0.105 ± 0.36.
Under SCVLRLNMAYIIVVVNSLEC stands “inactive”.
Under SCWPCQ stands -1.09 ± 2.4; under SCWVDSDHLNCFIYFTFVNT, -1.27 ± 2.7; under SCYGEFEPFRESRMGRSNLA, 0.538 ± 0.75.
With SDASLLTKSVFADGRDQVTR the figure was 0.433 ± 0.28; with SDCVVVGHGVVRIYMDGVWP, 5.84 ± 0.065.
SDERKGPGYPSMITSWQGGS had an amyloid nucleation score of -1.31 ± 2.4.
Under SDGMFSYNVRFAQRSWMYRT stands -0.14 ± 0.55; under SDRSLVGRNAGM, -0.468 ± 0.65; under SDSRVVLPLLIPLSART, 0.865 ± 0.42.
Under SDVLGMSQAIGASTSVAEVV stands “inactive”.
Under SDVYRGVVIVGHMIAKHMLV stands 0.494 ± 0.55.
As to SEAMGMDNSQWSFALFMASM, the amyloid nucleation score came to 0.184 ± 0.48.
Under SEGKHNCKLT stands -0.635 ± 0.95; under SEIPKSYPNFDYVSFINNSL, -0.24 ± 0.39.
In turn, SELEYPTMGVSVVRLCSSSG showed an amyloid nucleation score of 0.1 ± 0.48.
Under SELGVSSVRLERAFILGSWT stands -1.63 ± 1.
SEMPIFYLWDPQSGQRSWDG showed an amyloid nucleation score of 0.036 ± 0.93.
As to SESLWDRGTVPKRPCAASLQ, the amyloid nucleation score result was “inactive”.
With SFCSFEF the figure was 0.858 ± 0.88.
With SFDYRENCPINTVIWLRLCK the figure was 3.93 ± 0.098; with SFFMYLNIRWIWSMCVNAIE, 0.09 ± 0.58; with SFGNVILSGIIRTTVLDRGV, -0.381 ± 0.74.
The substance SFHWQKGSSSYTVSPHSAKL returned an amyloid nucleation score of 0.239 ± 0.26.
Regarding SFMQFDIRFT, the amyloid nucleation score worked out at 1.4 ± 0.27.
Under SFNNFEFILVIDYKRKSYMR stands -0.222 ± 0.36; under SFNVAMCRCDVYL, 7.027 ± 0.047; under SFRCGSNNSIHD, -2.02 ± 1.7.
With SFSCSVVLNRILMGIIYTCG the figure was -0.836 ± 0.55; with SFSMFSEFSLLRCSAYRNPM, 2.26 ± 0.063.
Under SFTWRQNQVGNA stands 1.24 ± 0.4.
In the case of SFVFLRNL, the amyloid nucleation score came to 0.142 ± 0.32.
With SFWYYGDEKNVTVNLGFNES the figure was -0.233 ± 0.79.
With SGGDFQCTRHMSVDLGLPVS the figure was 0.428 ± 0.64; with SGGIQCTGGRISVSCAVGKN, -0.224 ± 0.94; with SGGNLFRVMRWSMHFVSVRL, -0.355 ± 0.33.
With SGHNLWRRGQKWSL the figure was -0.455 ± 0.58.
